Data taken from publication PMC6957267 (Molecular cancer therapeutics, 2012).
Each block holds one binder with its values, some of them ahead of it.

Molecular target: Mature human IGF-II (insulin-like growth factor II) (human)
Assay: ELISA

EC50: 5 nM
B1: Fab m610.27 (Fab, V domains shown)
VH: QVQLVQSGAEVKKPGASVKVSCKASGYTFTSYYMHWVRQAPGQGLEWMGIINPSGGSTSYAQKFQGRVTMTRDTSTSTVYMELSRLRSDDTAVYYCARDVQWLAYGMDVWGQGTTVTVSS
VL: DIQMTQSPSSLSASVGDRVTITCRASQSISSYLNWYQQKPGRAPDLLINAASSLQSGVPSRFSGSGSGTDFTLTISSLQPEDFATYFCQQSYSLPFTFGGGTKVEIK

EC50: 20 nM
B2: m610 (human mAb to IGF-II), Fab (Fab, V domains shown)
VH: B1 VH
VL: not shown
